The text below walks through data of patent US20050118229A1, “Implantable drug delivery device for sustained release of therapeutic agent” (iMEDD, Inc., priority 2003, published 2005).

Data set [1] is described as follows: Hydration of lysozyme particles through planar microporous membrane (dual sub-chamber device of FIG. 1). It counts as physicochemical. The text has this:
The data presented in FIG. 3 is illustrative of zero-order hydration of the surrogate molecule lysozyme using the planar version of the microporous membrane shown in FIG. 1. In this experiment, three identical acrylic chambers were used, each chamber including two subchambers separated by a planar microporous membrane. The microporous membrane was a Whatman 1PS Phase Separator having a diameter of […] (area=113 mm^2).
The lower portion of the chamber (i.e., the lower sub-chamber) was filled with 2.7 milliliters of the water-immiscible solvent, perfluorodecalin. Suspended in this solvent were 20 mg of solid lysozyme particles having an average particle size of 90 micrometers. The range of particle sizes was 75 to 105 micrometers. […] The upper portion of the chamber (i.e., the upper sub-chamber) contained 0.3 milliliters of phosphate buffered saline solution. A stirring bar was placed in the lower sub-chamber of each device to agitate the solvent at ambient temperature during the fifty-two day test period. After thirty-seven days, stirring was stopped to determine whether or not agitation had any effect on the hydration rate. The buffer solution in the upper sub-chamber of each device was removed each day and replaced with a fresh supply of solution. The lysozyme content of the upper sub-chamber samples was analyzed periodically to determine the quantity of lysozyme material that had dissolved in a one-day time period. The daily mass of lysozyme that was present in the upper sub-chamber was added to the sum of the previous days, thus the data in FIG. 3 represents the total mass of hydrated lysozyme.
The effect of longer release periods is substantially equivalent to determining the release rate with decreasing amounts of lysozyme present in the device enclosure. To determine release variations over longer periods of time, additional planar-membrane, dual-chamber experiments were conducted using different initial amounts of lysozyme loaded, i.e., suspended, in the perfluorodecalin used to fill the lower sub-chamber. […] These average hydration rates are plotted in FIG. 5 as a function of the amount of mass loaded (100%=20 mg).

A short description of data set [2]: Hydration of lysozyme particles from cylindrical capsule-like microporous membrane packet (FIG. 2). Format: physicochemical. The protocol: FIG. 6 provides hydration results for a device utilizing the three-dimensional capsule-like embodiment of the microporous membrane (see FIG. 2). For this experiment, a section of Whatman 1PS Phase Separator membrane was formed into a cylinder and sealed lengthwise and at both ends. The resulting cylinder was 10 mm in length and 4 mm in diameter (125 mm^2 membrane area). The cylinder was filled with approximately 1.4 mg of solid lysozyme having an average particle size of 90 micrometers combined with approximately 125 μl of the water-immiscible solvent perfluorodecalin,
The particle-filled cylinder described above was placed in a well containing 1.5 milliliters of phosphate buffered saline. A series of 70 μl samples were removed from the well at various time intervals. These samples were analyzed, and the results in FIG. 6 are the summation of mass hydrated as a function of time. Approximately 2.6 μg of lysozyme per day (i.e., 0.021 μg/mm^2) was hydrated after a nine-day delay. This observed rate is a factor of four less than the hydration rate observed in the previously discussed planar membrane experiments; however, because the entire membrane area was not active for the cylinder-shaped membrane, the release per unit area data is in reasonable agreement bwtween the two experiments. Thus, the data shown in FIGS. 4-6 provide a clear indication that the devices shown in FIGS. 1 and 2 are capable of providing the long-term zero-order release desired for an implantable drug-delivery device.

Consider lysozyme, for which the “hydration rate relative to its original value” in data set [1] (2 mg loaded (10% of 20 mg)) came to 83%. In addition, the hydration rate was determined as 7.7 micrograms/day in data set [1] (2 mg suspended lysozyme, planar membrane) and 8.9 micrograms/day in data set [1] (5 mg suspended lysozyme, planar membrane). In data set [1] (20 mg loaded, over the fifty-two day testing period), this substance had a lysozyme mass hydrated of 2%. For the same substance, the “initial delay before hydration” value in data set [1] (20 mg lysozyme loaded, planar membrane) is “eight to fourteen”. Besides, the “average hydration rate per membrane area” value in data set [1] (20 mg lysozyme loaded, planar membrane area 113 mm^2) came to 0.082 ug/day/mm^2. In data set [1] (20 mg solid lysozyme particles loaded in perfluorodecalin, planar Whatman 1PS membrane, PBS, ambient temperature, 52 day test), this substance showed an average hydration rate of 9.3 micrograms per day. Besides, the “decrease of hydration rate” value in data set [1] (during the time the mass of lysozyme decreases by 80%) was 4%. For the same substance, in data set [2] (approx. 1.4 mg lysozyme in approx. 125 μl perfluorodecalin, cylinder 125 mm^2 Whatman 1PS, 1.5 ml PBS), the “lysozyme hydrated per day” value is on record as “Approximately 2.6 μg per day”. In addition, the “factor by which rate is less than the planar membrane hydration rate” value in data set [2] (cylinder versus planar membrane experiments) is reported as “four”. In addition, in data set [2] (cylinder-shaped membrane), the delay before hydration result was “nine”. For the same substance, the “lysozyme hydrated per membrane area” value in data set [2] (cylinder-shaped membrane, 125 mm^2 membrane area) was approximately 0.021 μg/mm^2.
